Publication doi:10.1101/586255v1

Tested on: N[C@@H](CO)C(=O)O
Assay: purified protein, by the assay type
Settings: pH 7.6; 37.0 °C

HsSerRS (Homo sapiens)
Km: 1083 ± 156 µM
